Data taken from publication PMC5122715, “A Novel, Molybdenum-Containing Methionine Sulfoxide Reductase Supports Survival of Haemophilus influenzae in an In vivo Model of Infection” (Frontiers in Microbiology, 2016).

Legend:
Test in all cases: purified protein
C[N+](C)(C)[O-] = conditions: 0.2 mM benzyl viologen, 0.3 mM dithionite, 20 mM sodium phosphate pH 6.8, 37°C
C[S+](C)[O-] = conditions: 0.2 mM benzyl viologen, 0.3 mM dithionite, 20 mM sodium phosphate pH 6.8, 37°C
C[S+]([O-])CCC(N)C(=O)O = conditions: 0.2 mM benzyl viologen, 0.3 mM dithionite, 20 mM sodium phosphate pH 6.8, 37°C, concentration of the whole racemic mixture
[1] = tested on: O=C(O)CCCC[C@H]1[C@H]2NC(=O)N[C@H]2C[S@+]1[O-]; conditions: 0.2 mM benzyl viologen, 0.3 mM dithionite, 20 mM sodium phosphate pH 6.8, 37°C

Substance: HI rTorZ (TorZ/MtsZ) (Haemophilus influenzae Rd KW20)
- Km (C[N+](C)(C)[O-]): 6700 ± 2000 µM
- kcat (C[N+](C)(C)[O-]): 435 ± 52.1 s⁻¹
- kcat/Km (C[N+](C)(C)[O-]): 64900 M⁻¹ s⁻¹
- Km (C[S+](C)[O-]): 140 ± 50 µM
- kcat (C[S+](C)[O-]): 85.4 ± 9.1 s⁻¹
- kcat/Km (C[S+](C)[O-]): 650000 M⁻¹ s⁻¹
- Km (C[S+]([O-])CCC(N)C(=O)O): 410 ± 80 µM
- kcat (C[S+]([O-])CCC(N)C(=O)O): 91.7 ± 4.4 s⁻¹
- kcat/Km (C[S+]([O-])CCC(N)C(=O)O): 224000 M⁻¹ s⁻¹
- Km [1]: 1520 ± 280 µM
- kcat [1]: 183 ± 10.9 s⁻¹
- kcat/Km [1]: 120000 M⁻¹ s⁻¹
